# Reference: patent publication US20100028340A1
# T1: recombinant purified human RGM A (R&D Systems Cat# 2459-RM) (human) (UniProt Q96B86)
# T1 sequence: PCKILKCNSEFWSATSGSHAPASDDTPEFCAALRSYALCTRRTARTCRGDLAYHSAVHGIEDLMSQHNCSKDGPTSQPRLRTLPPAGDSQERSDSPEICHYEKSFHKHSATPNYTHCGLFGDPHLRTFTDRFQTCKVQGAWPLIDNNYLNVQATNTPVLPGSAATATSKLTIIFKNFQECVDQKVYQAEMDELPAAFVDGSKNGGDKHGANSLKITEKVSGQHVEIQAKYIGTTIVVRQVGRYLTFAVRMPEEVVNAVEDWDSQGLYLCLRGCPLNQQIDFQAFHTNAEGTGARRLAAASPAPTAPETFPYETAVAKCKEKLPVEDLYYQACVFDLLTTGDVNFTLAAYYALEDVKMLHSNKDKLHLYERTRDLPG
# How the values were obtained:
# [1] = biological target: T1, recombinant purified human RGM A (R&D Systems Cat# 2459-RM) (human); experiment: competition ELISA on coated hRGMA; competitor biotinylated chimeric 5F9
# [2] = biological target: T1, recombinant purified human RGM A (R&D Systems Cat# 2459-RM) (human); experiment: SPR (Biacore 3000), antibody captured by anti-human IgG Fc, hRGMA in solution, 25 °C
Binder,IC50 [1] [µg/mL],Kd [2] [nM],koff [2] [s⁻¹],kon [2] [M⁻¹ s⁻¹]
"h5F9.23 (antibody, human IgG1, V domains shown) VH: EVQLVESGGGLVQPGGSLRLSCAASGFTFSNYGMNWIRQAPGKGLEWIGMIYYDSSEKHYADSVKGRFTISRDNSKNTLYLQMNSLRAEDTAVYYCAKGTTPDYWGQGTMVTVSS VL: DVVLTQSPLSLPVTLGQPASISCRSSQSLEYSDGYTFLEWFQQRPGQSPRLLIYEVSNRFSGVPDRFSGSGSGTDFTLKISRVEAEDVGVYYCFQATHDPLTFGQGTKLEIKR",0.55,4.37,0.00221,507000
"h5F9.24 (antibody, human IgG1, V domains shown) VH: EVQLVESGGGLVQPGGSLRLSCAASGFTFSNYGMNWIRQAPGKGLEWIGMIYYDSSEKHYADSVKGRFTISRDNSKNTLYLQMNSLRAEDTAVYYCAKGTTPDYWGQGTMVTVSS VL: DVVLTQSPLSLPVTLGQPASISCRSSQSLEYSDGYTFLEWFQQRPGQSPRRLIYEVSNRFSGVPDRFSGSGSGTDFTLKISRVEAEDVGVYYCFQATHDPLTFGQGTKLEIKR",1.32,–,–,–

# The remaining binders from weak to strong by Kd [2], led by results:
IC50 [1] [µg/mL],Kd [2] [nM],koff [2] [s⁻¹],kon [2] [M⁻¹ s⁻¹],Binder
0.6,7.59,0.00269,355000,"h5F9.21 (antibody, human IgG1, V domains shown) VH: EVQLVESGGGVVQPGRSLRLSCAASGFTFSNYGMNWIRQAPGKGLEWIGMIYYDSSEKHYADSVKGRFTISRDNSKNTLYLQMNSLRAEDTAVYYCAKGTTPDYWGQGTMVTVSS VL: DVVLTQSPLSLPVTLGQPASISCRSSQSLEYSDGYTFLEWFLQKPGQSPQLLIYEVSNRFSGVPDRFSGSGSGTDFTLKISRVEAEDVGVYYCFQATHDPLTFGQGTKLEIKR"
0.66,5.78,0.00329,570000,"h5F9.25 (antibody, human IgG1, V domains shown) VH: EVQLVESGGGLVQPGGSLRLSCAASGFTFSNYGMNWIRQAPGKGLEWIGMIYYDSSEKHYADSVKGRFTISRDNSKNTLYLQMNSLRAEDTAVYYCAKGTTPDYWGQGTMVTVSS VL: DVVLTQSPLSLPVTLGQPASISCRSSQSLEYSDGYTFLEWFLQKPGQSPQLLIYEVSNRFSGVPDRFSGSGSGTDFTLKISRVEAEDVGVYYCFQATHDPLTFGQGTKLEIKR"
–,3.09,0.00236,765000,"chimeric 5F9 (antibody, V domains shown) VH: EVQLVESGGGLVQPGSSLKLSCVASGFTFSNYGMNWIRQAPKKGLEWIGMIYYDSSEKHYADSVKGRFTISRDNSKNTLYLEMNSLRSEDTAIYYCAKGTTPDYWGQGVMVTVSS VL: DVVLTQTPVSLSVTLGDQASMSCRSSQSLEYSDGYTFLEWFLQKPGQSPQLLIYEVSNRFSGVPDRFIGSGSGTDFTLKISRVEPEDLGVYYCFQATHDPLTFGSGTKLEIKR"
